{"source": "the supplement of paper PMC9112550", "about": "“Optimization of the antimicrobial peptide Bac7 by deep mutational scanning” (BMC Biology, 2022);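 further: peptides expressed intracellularly from a pBAD plasmid library in pooled LB shake-flask culture, induced with 0.3% L-arabinose, DNA abundance read by NGS, three biological replicates, DESeq2 with apeglm shrinkage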", "data": [{"test_system": "Escherichia coli TOP10", "assay": "shrunken log2 fold change of peptide-encoding DNA abundance (4.5 h post-induction vs induction); higher = less antimicrobial activity (less host growth inhibition)", "settings": "time post-induction: 4.5 h; library: site-saturation at positions 5, 18, 19, 20", "values": [{"sequence": "RRIRYRPPRLPRPRPRPLLGPRP", "shrunken log2 fold change": -0.25}, {"sequence": "RRIRMRPPRLPRPRPRPIWDPRP", "shrunken log2 fold change": 0.0663}, {"sequence": "RRIRGRPPRLPRPRPRPPMDPRP", "shrunken log2 fold change": 0.597}, {"sequence": "RRIRLRPPRLPRPRPRPEKHPRP", "shrunken log2 fold change": -0.262}, {"sequence": "RRIRCRPPRLPRPRPRPDCEPRP", "shrunken log2 fold change": -0.0299}, {"sequence": "RRIRCRPPRLPRPRPRPRNMPRP", "shrunken log2 fold change": 0.0316}, {"sequence": "RRIRRRPPRLPRPRPRPHVPPRP", "shrunken log2 fold change": -0.148}, {"sequence": "RRIRGRPPRLPRPRPRPSFLPRP", "shrunken log2 fold change": -0.118}, {"sequence": "RRIRLRPPRLPRPRPRPTMRPRP", "shrunken log2 fold change": 0.836}, {"sequence": "RRIRMRPPRLPRPRPRPGGFPRP", "shrunken log2 fold change": 1.06}, {"sequence": "RRIRKRPPRLPRPRPRPDVLPRP", "shrunken log2 fold change": 0.0156}, {"sequence": "RRIRFRPPRLPRPRPRPSRLPRP", "shrunken log2 fold change": 0.014}, {"sequence": "RRIRVRPPRLPRPRPRPLSSPRP", "shrunken log2 fold change": 0.0511}, {"sequence": "RRIRYRPPRLPRPRPRPEGYPRP", "shrunken log2 fold change": -0.01}, {"sequence": "RRIRMRPPRLPRPRPRPTAIPRP", "shrunken log2 fold change": 0.072}, {"sequence": "RRIRDRPPRLPRPRPRPWIQPRP", "shrunken log2 fold change": -0.653}, {"sequence": "RRIRGRPPRLPRPRPRPHQWPRP", "shrunken log2 fold change": 0.134}, {"sequence": "RRIRRRPPRLPRPRPRPDHYPRP", "shrunken log2 fold change": -2.95}, {"sequence": "RRIRLRPPRLPRPRPRPRKDPRP", "shrunken log2 fold change": 0.0699}, {"sequence": "RRIRRRPPRLPRPRPRPHKNPRP", "shrunken log2 fold change": 0.126}, {"sequence": "RRIRGRPPRLPRPRPRPCLSPRP", "shrunken log2 fold change": 0.0424}, {"sequence": "RRIRTRPPRLPRPRPRPRYEPRP", "shrunken log2 fold change": -0.0806}, {"sequence": "RRIRVRPPRLPRPRPRPGDPPRP", "shrunken log2 fold change": 0.172}, {"sequence": "RRIRNRPPRLPRPRPRPSIWPRP", "shrunken log2 fold change": -0.474}, {"sequence": "RRIRCRPPRLPRPRPRPYVNPRP", "shrunken log2 fold change": -1.3}, {"sequence": "RRIRIRPPRLPRPRPRPNTCPRP", "shrunken log2 fold change": -0.85}, {"sequence": "RRIRSRPPRLPRPRPRPLDRPRP", "shrunken log2 fold change": 0.218}, {"sequence": "RRIRYRPPRLPRPRPRPLDKPRP", "shrunken log2 fold change": -0.0449}, {"sequence": "RRIRTRPPRLPRPRPRPEYVPRP", "shrunken log2 fold change": 0.0172}, {"sequence": "RRIRNRPPRLPRPRPRPFIFPRP", "shrunken log2 fold change": -0.373}, {"sequence": "RRIRGRPPRLPRPRPRPWRQPRP", "shrunken log2 fold change": 0.0568}, {"sequence": "RRIRFRPPRLPRPRPRPSLNPRP", "shrunken log2 fold change": -0.642}, {"sequence": "RRIRIRPPRLPRPRPRPALWPRP", "shrunken log2 fold change": 0.199}, {"sequence": "RRIRQRPPRLPRPRPRPECQPRP", "shrunken log2 fold change": -0.0746}, {"sequence": "RRIRYRPPRLPRPRPRPHPTPRP", "shrunken log2 fold change": -0.289}, {"sequence": "RRIRERPPRLPRPRPRPAWMPRP", "shrunken log2 fold change": 0.501}, {"sequence": "RRIRRRPPRLPRPRPRPMREPRP", "shrunken log2 fold change": 0.0493}, {"sequence": "RRIRSRPPRLPRPRPRPMEPPRP", "shrunken log2 fold change": 0.0473}, {"sequence": "RRIRTRPPRLPRPRPRPRQHPRP", "shrunken log2 fold change": -0.374}, {"sequence": "RRIRGRPPRLPRPRPRPMDEPRP", "shrunken log2 fold change": 0.237}, {"sequence": "RRIRTRPPRLPRPRPRPRTEPRP", "shrunken log2 fold change": 0.153}, {"sequence": "RRIRDRPPRLPRPRPRPMMNPRP", "shrunken log2 fold change": -0.00862}, {"sequence": "RRIRRRPPRLPRPRPRPQVFPRP", "shrunken log2 fold change": 0.408}, {"sequence": "RRIRPRPPRLPRPRPRPRNMPRP", "shrunken log2 fold change": -0.126}, {"sequence": "RRIRIRPPRLPRPRPRPMRLPRP", "shrunken log2 fold change": 0.0554}, {"sequence": "RRIRYRPPRLPRPRPRPEGSPRP", "shrunken log2 fold change": -0.0779}, {"sequence": "RRIRGRPPRLPRPRPRPHPEPRP", "shrunken log2 fold change": 0.513}, {"sequence": "RRIRHRPPRLPRPRPRPFLSPRP", "shrunken log2 fold change": -0.187}, {"sequence": "RRIRRRPPRLPRPRPRPYSLPRP", "shrunken log2 fold change": -0.0861}, {"sequence": "RRIRCRPPRLPRPRPRPMYIPRP", "shrunken log2 fold change": -0.675}, {"sequence": "RRIRVRPPRLPRPRPRPGHGPRP", "shrunken log2 fold change": 0.00601}, {"sequence": "RRIRSRPPRLPRPRPRPISVPRP", "shrunken log2 fold change": -0.151}, {"sequence": "RRIRGRPPRLPRPRPRPYDPPRP", "shrunken log2 fold change": -0.0783}, {"sequence": "RRIRWRPPRLPRPRPRPPTMPRP", "shrunken log2 fold change": 0.264}, {"sequence": "RRIRGRPPRLPRPRPRPMMPPRP", "shrunken log2 fold change": 0.119}, {"sequence": "RRIRMRPPRLPRPRPRPTEFPRP", "shrunken log2 fold change": 0.0756}, {"sequence": "RRIRIRPPRLPRPRPRPKTPPRP", "shrunken log2 fold change": -0.0573}, {"sequence": "RRIRERPPRLPRPRPRPLSWPRP", "shrunken log2 fold change": 0.04}, {"sequence": "RRIRPRPPRLPRPRPRPGKCPRP", "shrunken log2 fold change": -0.125}, {"sequence": "RRIRCRPPRLPRPRPRPSNCPRP", "shrunken log2 fold change": -0.0679}, {"sequence": "RRIRARPPRLPRPRPRPVFYPRP", "shrunken log2 fold change": -0.0366}, {"sequence": "RRIRTRPPRLPRPRPRPAPKPRP", "shrunken log2 fold change": 0.371}, {"sequence": "RRIRTRPPRLPRPRPRPSMAPRP", "shrunken log2 fold change": 0.444}, {"sequence": "RRIRNRPPRLPRPRPRPFMNPRP", "shrunken log2 fold change": -0.195}, {"sequence": "RRIRDRPPRLPRPRPRPQGGPRP", "shrunken log2 fold change": -0.17}, {"sequence": "RRIRLRPPRLPRPRPRPQCIPRP", "shrunken log2 fold change": -0.0123}, {"sequence": "RRIRERPPRLPRPRPRPADPPRP", "shrunken log2 fold change": -0.35}, {"sequence": "RRIRKRPPRLPRPRPRPTHVPRP", "shrunken log2 fold change": -0.305}, {"sequence": "RRIRERPPRLPRPRPRPQDHPRP", "shrunken log2 fold change": -0.0577}, {"sequence": "RRIRCRPPRLPRPRPRPQEHPRP", "shrunken log2 fold change": -0.389}, {"sequence": "RRIRPRPPRLPRPRPRPVHKPRP", "shrunken log2 fold change": -0.0637}, {"sequence": "RRIRLRPPRLPRPRPRPNVPPRP", "shrunken log2 fold change": -0.213}, {"sequence": "RRIRQRPPRLPRPRPRPFHKPRP", "shrunken log2 fold change": -0.0921}, {"sequence": "RRIRPRPPRLPRPRPRPGWMPRP", "shrunken log2 fold change": -0.0745}, {"sequence": "RRIRVRPPRLPRPRPRPRGHPRP", "shrunken log2 fold change": 0.175}]}]}
